Numbering of substitutions follows the chain as printed.

The results in this text go back to article PMC8786865 (Nature Communications, 2022).

B1: E5 (antibody, V domains shown)
VH: EVQLVQSGAEVKKPGASVKVSCKVSGYSFTDHSIHWVRQAPGKGLEWMGGINPYTGDTIYAQKFQGRVTMTEDTSTDTAYMELSSLKSEDTAVYYCAKDGWGSLLNGIAVAGLDYWGQGTLVTVSS
VL: DIQMTQSPSSVSASVGDRVTITCRASQDISTYLAWYQQKPGKAPKLLIYASSNLASGVPSRFSGSGSGTDFTLTISSLQPEDFANYYCHQYATYPWGFGGGTKVEIK
B2: G8 (antibody, V domains shown)
VH: B1 VH with Q6E, K98R
VL: B1 VL with D28S, S30G, T31S, Y32F, G97T
B3: selected anti-SARS-CoV-2 spike antibody A10 (antibody, V domains shown)
VH: QVQLVQSGAEVKKPGASVKVSCKVSGYSFTDHSIHWVRQAPGKGLEWMGGINPNIGDTIYAQKFQGRVTMTEDTSTDTAYMELSSLKSEDTAVYYCARDGYGDYRGLYGMDVWGQGTTVTVSS
VL: B1 VL with Q27R, S30N, T31K, A50G, S51E, N53S, L54R, S56A, G97T
B4: selected anti-SARS-CoV-2 spike antibody C2 (antibody, V domains shown)
VH: QVQLVQSGAEVKKPGASVKVSCKASGYTSPATIHWVRQAPGKGLEWMGGISPYKGDTIYAQKFQGRVTMTEDTSTDTAYMELSSLKSEDTAVYYCARDAYSSSYYYGMDVWGQGTTVTVSS
VL: B1 VL with Q27E, T31K, A50G, S51A, A55H, S56T, G97T
B5: selected anti-SARS-CoV-2 spike antibody D2 (antibody, V domains shown)
VH: QVQLVQSGAEVKKPGASVKVSCKVSGYSFTDHSIHWVRQAPGKGLEWMGGINPYTGDTIYAQKFQGRVTMTEDTSTDTAYMELSSLKSEDTAVYYCARDARLLDYWGQGAQVTVSS
VL: B1 VL with Q27R, D28S, S30G, T31N, Y32H, G97T
B6: selected anti-SARS-CoV-2 spike antibody F7 (antibody, V domains shown)
VH: QVQLVQSGAEVKKPGASVKVSCKVSGYSFSTYTIHWVRQAPGKGLEWMGGINPYTGDTIYAQKFQGRVTMTEDTSTDTAYMELSSLKSEDTAVYYCARDGYSGYESSYYYYGMDVWGQGTTVTVSS
VL: B1 VL with S30G, T31N, Y32H, G97T
B7: selected anti-SARS-CoV-2 spike antibody G6 (antibody, V domains shown)
VH: EVQLVESGAEVKKPGASVKVSCKVSGYTFSNHAIHWVRQAPGKGLEWMGGINPNIGDTIYAQKFQGRVTMTEDTSTDTAYMELSSLKSEDTAVYYCARDGYPGDYSGLDVWGQGTLVTVSS
VL: B1 VL with D28P, T31S, A50E, S51A, N53K, A55Q, G97T
B8: selected anti-SARS-CoV-2 spike antibody H2 (antibody, V domains shown)
VH: EVQLVQSGAEVKKPGASVKVSCKVSGYPFTRSTIHWVRQAPGKGLEWMGGINAGTGDTIYAQKFQGRVTMTEDTSTDTAYMELSSLKSEDTAVYYCARDGYSSGYYGMDVWGQGTLVTVSS
VL: B1 VL with D28G, T31D, Y32F, A50G, S51A, L54R, S56T, G97T
B9: selected anti-SARS-CoV-2 spike antibody C7 (antibody, V domains shown)
VH: QVQLVQSGAEVKKPGASVKVSCKVSGYSFTNYAIHWVRQAPGKGLEWMGGITPYNADTIYAQKFQGRVTMTEDTSTDTAYMELSSLKSEDTAVYYCARDGGNWAAPYSMDVWGNGTLVTVSS
VL: B1 VL with Q27H, D28G, T31S, A50D, S51A, S52T, N53I, L54R, S56T, G97T
B10: selected anti-SARS-CoV-2 spike antibody D3 (antibody, V domains shown)
VH: B3 VH with Q1E, T30A, H32Y, S33A, G102D, D103F, Y104W, R105S, L107S
VL: B1 VL with S30G, T31N, Y32H, H89Q, A92S, T93E, G97T
B11: selected anti-SARS-CoV-2 spike antibody C4 (antibody, V domains shown)
VH: EVQLVQSGAEVKKPGASVKVSCKVSGYSFTDHSIHWVRQAPGKGLEWMGGINPYTGDTIYAQKFQGRVTMTEDTSTDTAYMELSSLKSEDTAVYYCARDGYSGYDYGSVGRDYYYYGMDVWGQGTTVTVSS
VL: B1 VL with S30G, T31N, Y32H, G97T
B12: selected anti-SARS-CoV-2 spike antibody B3 (antibody, V domains shown)
VH: EVQLVQSGAEVKKPGASVKVSCKVSGYTSPATIHWVRQAPGKGLEWMGGISPYKGDTIYAQKFQGRVTMTEDTSTDTAYMELSSLKSEDTAVYYCAKDSYYYDSSGSGLGGGFDYWGQGTLVTVSS
VL: B1 VL with S30G, T31N, Y32H, G97T
B13: selected anti-SARS-CoV-2 spike antibody B7 (antibody, V domains shown)
VH: B1 VH with E1Q, Y54N, T55I
VL: B1 VL with S30G, T31N, Y32H, G97T
B14: selected anti-SARS-CoV-2 spike antibody F5 (antibody, V domains shown)
VH: B7 VH with E6Q, P102S, D104Y, Y105V, S106E, L108M, L116T
VL: B1 VL with D28N, S30H, T31S, A50D, S51T, N53K, A55Q, T93A, G97T
B15: selected anti-SARS-CoV-2 spike antibody B11 (antibody, V domains shown)
VH: EVQLVQSGAEVKKPGASVKVSCKVSGYSFTDHSIHWVRQAPGKGLEWMGGINPYTGDTIYAQKFQGRVTMTEDTSTDTAYMELSSLKSEDTAVYYCARDAYPYYYGMDVWGQGTTVTVSS
VL: B1 VL with S30G, T31N, Y32H, G97T
B16: selected anti-SARS-CoV-2 spike antibody A12 (antibody, V domains shown)
VH: B1 VH with K98R
VL: B1 VL with S30G, T31N, Y32H, G97T
B17: selected anti-SARS-CoV-2 spike antibody A11 (antibody, V domains shown)
VH: QVQLVQSGAEVKKPGASVKVSCKVSGYSFTDHSIHWVRQAPGKGLEWMGGINPYTGDTIYAQKFQGRVTMTEDTSTDTAYMELSSLKSEDTAVYYCARDGYSYGYLSGMDVWGQGTTVTVSS
VL: B1 VL with S30G, T31N, Y32H, G97T
B18: selected anti-SARS-CoV-2 spike antibody G12 (antibody, V domains shown)
VH: B3 VH with Q1E, S28T, T30S, D31N, S33A
VL: B1 VL with S30G, T31N, Y32H, G97T
B19: selected anti-SARS-CoV-2 spike antibody F1 (antibody, V domains shown)
VH: B8 VH with R31S, S32Y, T33A, N52T, A53P, G54Y, T55N, G56A, L116T
VL: B1 VL with S30G, T31N, Y32H, G97T
B20: selected anti-SARS-CoV-2 spike antibody G5 (antibody, V domains shown)
VH: B17 VH
VL: B1 VL with T31H, Y32H, A50D, S51A, N53L, L54R, S56T, V58I, T93A, G97T
B21: selected anti-SARS-CoV-2 spike antibody G4 (antibody, V domains shown)
VH: QVQLVQSGAEVKKPGASVKVSCKVSGYTLSDHAIHWVRQAPGKGLEWMGGINPYTGDTIYAQKFQGRVTMTEDTSTDTAYMELSSLKSEDTAVYYCARDGYDFWSGSYGMDVWGQGTTVTVSS
VL: B1 VL with S30G, T31N, Y32H, G97T
B22: selected anti-SARS-CoV-2 spike antibody C1 (antibody, V domains shown)
VH: EVQLVQSGAEVKKPGASVKVSCKVSGYSFTDHSIHWVRQAPGKGLEWMGGISTQRGDTIYAQKFQGRVTMTEDTSTDTAYMELSSLKSEDTAVYYCARDGYYGSGTYYYYGMDVWGQGTTVTVSS
VL: DIQMTQSPSSVSASVGDRVTITCRASQSIGSFLAWYQQKPGKAPKLLIYGESNRATGVPSRFSGSGSGTDFTLTISSLQPEDFANYYCQQYNRYPWAFGGGTKVEIK
B23: selected anti-SARS-CoV-2 spike antibody B2 (antibody, V domains shown)
VH: B22 VH with E1Q, S52N, T53P, Q54Y, R55T, G100A, Y102S, G105Y, T106P
VL: DIQMTQSPSSVSASVGDRVTITCRASEGISNYLAWYQQKPGKAPKLLIYGTSDRASGIPSRFSGSGSGTDFTLTISSLQPEDFANYYCQQYSAFPWTFGGGTKVEIK
B24: selected anti-SARS-CoV-2 spike antibody G2 (antibody, V domains shown)
VH: QVQLVQSGAEVKKPGASVKVSCKVSGYTFTANAIHWVRQAPGKGLEWMGGIGPGQGDTIYAQKFQGRVTMTEDTSTDTAYMELSSLKSEDTAVYYCARDGHCSGGSCPSGMDVWGQGTTVTVSS
VL: B23 VL with E27Q, G28D, S30G, Y32H, T51A, D53I, A55E, I58V

In one assay the target is T1, SARS-CoV-2 spike receptor-binding domain (RBD) (SARS-CoV-2, Wuhan-Hu-1, UniProt P0DTC2).
Test: not given
Conditions: not given
Take B1: the binding result is “binds”. Regarding B2, the binding result is given as “binds”.

The next assay addresses T1, SARS-CoV-2 spike receptor-binding …. Description: SPR; array SPR (Carterra LSA), HC200M chip; IgG captured on immobilised anti-human Fc; antigen as analyte in a 7-point series, RBD 300 nM to 411 pM or trimer 100 nM to 137 pM, in 1x HBSTE with 0.5 mg/mL BSA; association 5 min, dissociation 11 min; one-site model; constants for the trimer are called avidities. The following applies: both partners purified.
In the case of B3, the binding result is on record as “binds”. B4: the binding result is recorded as “binds”.

Take B5: the binding result is “binds”.

On to B6, for which the binding result was “binds”. As for B7, the binding result is “binds”.

In the case of B8, the binding result was “binds”. The same measure, in the same setting: to B9 belongs “binds”; to B10, “binds”; to B11, “binds”. B12: the binding result is given as “binds”.

B13: the binding result was “binds”. Consider B14, for which the binding result was “binds”.

Take B15: the binding result is “binds”. For the molecule B16, the binding result was “binds”. Still for that read-out and setting: to B17 belongs “binds”; to B18, “binds”. On to B19, for which the binding result is “binds”. Turning to B20, the binding result is recorded as “binds”. With B21, the binding result is listed as “binds”.

As for B22, the binding result is given as “binds”. With B23, the binding result is given as “binds”. B24: the binding result is listed as “binds”.
